Reference: patent US20200165324A1

Columns and labels:
[1] = target: gp120 (isolate 92BR020) (HIV-1 isolate 92BR020); assay: ELISA on gp120 (isolate 92BR020), buffer pH 6
[2] = target: gp120 (isolate 92BR020) (HIV-1 isolate 92BR020); assay: ELISA on gp120 (isolate 92BR020), buffer pH 5.5
[3] = target: Env of the 12-virus indicator panel; assay: cell-based or functional assay
[4] = target: Env of the 117-virus panel (117 cross-clade virus panel); assay: cell-based or functional assay
[5] = target: JR-CSF V372A
[6] = target: BG505 D474A
[7] = target: JR-CSF D474A
[8] = target: JR-CSF M373A
[9] = target: JR-CSF D279A
[10] = target: JR-CSF K282A
[11] = target: BG505 N262A
[12] = target: BG505 N276A
[13] = target: JR-CSF P369A
[14] = target: stabilized BG505 SOSIP construct MD39 (HIV isolate BG505); assay: competition ELISA on MD39 vs b12
[15] = target: stabilized BG505 SOSIP construct MD39 (HIV isolate BG505); assay: competition ELISA on MD39 vs PG9
[16] = target: stabilized BG505 SOSIP construct MD39 (HIV isolate BG505); assay: competition ELISA on MD39 vs 12A12
[17] = target: stabilized BG505 SOSIP construct MD39 (HIV isolate BG505); assay: competition ELISA on MD39 vs PGDM1400
[18] = target: stabilized BG505 SOSIP construct MD39 (HIV isolate BG505); assay: competition ELISA on MD39 vs PGT121
[19] = target: stabilized BG505 SOSIP construct MD39 (HIV isolate BG505); assay: competition ELISA on MD39 vs Self
[20] = target: stabilized BG505 SOSIP construct MD39 (HIV isolate BG505); assay: competition ELISA on MD39 vs PGT151
[21] = target: stabilized BG505 SOSIP construct MD39 (HIV isolate BG505); assay: competition ELISA on MD39 vs VRC01
[22] = target: stabilized BG505 SOSIP construct MD39 (HIV isolate BG505); assay: competition ELISA on MD39 vs 35022
[23] = target: stabilized BG505 SOSIP construct MD39 (HIV isolate BG505); assay: competition ELISA on MD39 vs 3BNC117
[24] = target: stabilized BG505 SOSIP construct MD39 (HIV isolate BG505); assay: competition ELISA on MD39 vs PGT128
[25] = target: stabilized BG505 SOSIP construct MD39 (HIV isolate BG505); assay: competition ELISA on MD39 vs CH103

| Binder | competition value [14] | competition value [15] | competition value [16] | competition value [17] | competition value [18] | competition value [19] | competition value [20] | competition value [21] | competition value [22] | competition value [23] | competition value [24] | competition value [25] | other results |
| --- | --- | --- | --- | --- | --- | --- | --- | --- | --- | --- | --- | --- | --- |
| PGV04 (antibody, from a related filing, V domains shown) VH: QVQLVQSGSGVKKPGASVRVSCWTSEDIFERTELIHWVRQAPGQGLEWIGWVKTVTGAVNFGSPDFRQRVSLTRDRDLFTAHMDIRGLTQGDTATYFCARQKFYTGGQGWYFDLWGRGTLIVVSS VL: EIVLTQSPGTLSLSPGETASLSCTAASYGHMTWYQKKPGQPPKLLIFATSKRASGIPDRFSGSQFGKQYTLTITRMEPEDFARYYCQQLEFFGQGTRLEIR | – | – | – | – | – | – | – | – | – | – | – | – | EC50 (read off the curve) [1]: 0.2 µg/mL; EC50 (read off the curve) [2]: 0.2 µg/mL |
| NC-Cow1 (antibody) VH: QVQLRESGPSLMKPSQTLSLTCTVSGSSLNDKSVGWVRQAPGKALQWLGSVDTSGNTDYNPGLKSRLSITKDNSKSRISLTVTGMTTEDSATYYCITAHQKTNKKECPEDYTYNPRCPQQYGWSDCDCMGDRFGGYCRQDGCSNYIHRSTYEWYVSAWGQGLLVTVSS VL: SYELTQPSSVSGSLGQRVSVTCSGSSSNVGNGYVSWYQLIPGSAPRTIIYGDTSRASGVPERFSGSRSGNTATLTISSLQAEDEADFFCASPDDSSSNAVFGSGTTLTVL | – | – | – | – | – | – | – | – | – | – | – | – | median IC50 of neutralization on the 12-virus indicator panel [3]: 0.007 µg/mL; neutralization breadth on the 12-virus indicator panel [3]: 100%; median IC50 of neutralization on the 117-virus panel [4]: 0.028 µg/mL; neutralization breadth on the 117-virus panel (pseudovirus, TZM-bl cells) [4]: 72%; IC50, pseudovirus neutralization [5]: > 50 µg/mL; IC50, pseudovirus neutralization [6]: 0.009 µg/mL; IC50, pseudovirus neutralization [7]: 0.744 µg/mL; IC50, pseudovirus neutralization [8]: 2.52 µg/mL; IC50, pseudovirus neutralization [9]: 1.02 µg/mL; IC50, pseudovirus neutralization [10]: > 50 µg/mL; IC50, pseudovirus neutralization [11]: 0.014 µg/mL; IC50, pseudovirus neutralization [12]: 0.011 µg/mL; IC50, pseudovirus neutralization [13]: 1.24 µg/mL |
| NC-Cow2 (antibody) VH: KVQLRESGPSLVKPSQTLSLTCMVSGSSLSDKAVGWVRQAPGKALEWLGIISAGGNRGYNSGLRSRLTISKDNSKNEVSLRVRSVTTEDSATYFCGTVHQKTQRKPICPDGYSDDSTLRYYSRCSDRDCWRCTGTTYYDTCQCGTYTWIDTHELHVDAWGQGLLVTVSS VL: QAVLNQPSSVSGSLGQRVSITCSGSSSNVGNGYVSWYQLIPGSAPRTLIYGDTSRASGVPDRFSGSRSGNTATLTISSLQAEDEADYFCASAEDSSSNAVFGSGTTLTVL | 0 | 4 | 94 | 18 | 27 | 91 | 11 | 93 | 11 | 93 | 57 | 11 | – |
| NC-Cow7 (antibody) VH: KVQLRESGPSLVKPFETLSLTCTGSGFSLSDKAAGWVRQAPGKAPEWLGSIDTGGNTGYNPGLKYRLSITKDNSKSQVSLSVSSMTSEDSATYYCTTVHQKAYKKVCPDDYSSNPDCVRLYGWSHCDCMRDSFGGWCRADGCSSTVEIGPYEWYVNAWGQGLLVTVSS VL: QAVLTQPSSVSGSLGQRVSITCSGSSSNVGNGYVSWYQLIPGSAPRSLIYGDTSRASGVPDRFSGSRSGNTATLTISSLQAEDEADYFCASPEDSSSNGVFGSGTTLTVL | 9 | 8 | 92 | 12 | 23 | 90 | 20 | 87 | 5 | 90 | 31 | 35 | – |
| NC-Cow5 (antibody) VH: QVQLQESGPSLVKPSQTLSLTCMVSGFSLNDKAVGWVRQAPGKALEWLGSIDAGGSTGYNPGLKSRLSISKDNSKNQVSLSVSSVTTEDSATYYCGTVHQRTQPKQTCPNGYSDDSALRYYSRCSDRDCWRCTGTTYYDTCQCSSYTYIHTYELYVDAWGQGLLVTVSS VL: QDVLTQPSSVSGSLGQRVSITCSGSSSNVGNGYVSWYQLIPGSAPRTLIYGDTSRASGVPDRFSGSRSGNTATLTISSLQAEDEADYFCASPEDSSSNAVFGSGTTLTVL | 23 | 21 | 95 | 3 | 21 | 37 | 2 | 95 | 14 | 94 | 71 | 38 | – |
| NC-Cow4 (antibody) VH: KVQLRESGPSLVKPSQTLSLTCMVSGFSLNDEAVGWVRQAPGKALEWLGSIDAGGSTGYNPGLKSRLSISKDNSKNQVSLSVSSVTTEDSATYYCGTVHQRTQPKQTCPNGYSDDSALRYYSRCSDRDCWRCTGTTYYDTCQCSSYTYIHTYELYVDAWGQGLLVTVSS VL: QAVLTQPSSVSGSLGQRVSITCSGSSSNVGNGYVSWYQLIPGSAPRTLIYGDTSRASGVPDRFSGSRSGNTATLTISSLQAEDEADYFCASPEDSSSNAVFGSGTTLTVL | 29 | 7 | 95 | 22 | -11 | 84 | 20 | 94 | 18 | 95 | 35 | 13 | – |
| germline PG9 HC (NC-Cow1 VH CDR3) + mature PG9 LC (antibody) VH: QVQLVESGGGVVQPGRSLRLSCAASGFTFSSYGMHWVRQAPGKGLEWVAVISYDGSNKYYADSVKGRFTISRDNSKNTLYLQMNSLRAEDTAVYYCITAHQKTNKKECPEDYTYNPRCPQQYGWSDCDCMGDRFGGYCRQDGCSNYIHRSTYEWYVSAWGKGTTVTVSS VL: QSALTQPASVSGSPGQSITISCNGTSNDVGGYESVSWYQQHPGKAPKVVIYDVSKRPSGVSNRFSGSKSGNTASLTISGLQAEDEGDYYCKSLTSTRRRVFGTGTKLTVL | – | – | – | – | – | – | – | – | – | – | – | – | median IC50 of neutralization on the 12-virus indicator panel [3]: 0.054 µg/mL; neutralization breadth on the 12-virus indicator panel [3]: 88% |
